{
  "source": "the DeepSol protein solubility set",
  "data": [
    {"assay": "soluble on expression in E. coli; label from the status in PepcDB or PDB records", "values": [
      {"sequence": "GPGSMMGTDTEKGLYLHAAWDLFERLRPGQQLCVSFFEIYCNSLYDLLNHRHPIVLREDANRRVNICGVTWRTVATVEELWQLVRSGMEQRRTGTTTANEHSSRSHAVLSLRITDSENPDFTGSVNFVDLAGSERAADTAAHDRLTRLEGAEINKSLLALKECIRALDEKKKHVPFRGSRLTEVLRASFTGNSKTVMIAAVSPSSVNHEHTSNTLRYAFRVKGLSVPSVWPSTARNAPRLCLPVARSRSRAAAAVAAANEPTSAPAATECSFNSKHTDDAGSPRRPRHARRRRHAYKTAHEPQDEIGISDTNESCTSDTATESPRPRMQITQKACRHQVGRNSTGSSTSAKRHKTCCLVPYMVESLSQRRTRHRTRKERLPLPRAACSIGESSDLLLANASGTDSKSRALAEVILPHVKGATRHPSSLIAVDVAALEQRLTLQIIAQLRLDLGQQLEEVLMEKDTIISALRSENEKLRQALDKTGNVEQFYGGSPCDGEVQKRPAVLPALLYPSSPSILQEQLSSGVSTASVGDEPPLRVLSE", "soluble on expression in E. coli": "not soluble"},
      {"sequence": "MSLKFAFIAKHRSIWPVAWLCEALGVSRSGFHAWFNRSPSEHARHDEVLLERIKQSFQSSDRTYGARRVWHDVLEEGLSCGLHRIERLMRLNALRARPRRRGFPKDAGDRPVVMPNVLDRQFVADRPNQKWVADFTYIWTAEGWLYVAAVIDLFSRRVVGWSMNANMTAQLVTDALIMAIWRRGKPDALLHHSDQGSQYTSEQFQRLMGDHGITCSMSRSGNVWDNAAMESFFSSLKTERTARKVYRTRNDARADVFDYIERFYNPKRRHSTLGYLSPDDFETKVGLAEGHHHHHH", "soluble on expression in E. coli": "not soluble"},
      {"sequence": "MVAKDYPFYLTVKRANCSLEAPLGSGVAKDEEPSNKRVKPLSRVTSLANLIPPVKTTPLKRFSQTLQRSISFRSESRPDILAPRAWSRNATSSSTKRRDSKLWSETFDVCVNQVLTAKEIKRQEAIFELSQGEEDLIEDLKLAKKAYHDPMLKLSIMTEQELNQIFGTLDSLIPLHEELLSQLRDVRKPDGSTEHVGPILVGWLPCLSSYDSYCSNQVAAKALLDHKKQDHRVQDFLQRCLESPFSRKLDLWNFLDIPRSRLVKYPLLLREILRHTPNDNPDQQHLEEAINIIQGIVAEINTKTGESECRYYKERLLYLEEGQKDSLIDSSRVLCCHGELKNNRGVKLHVFLFQEVLVITRAVTHNEQLCYQLYRQPIPVKDLTLEDLQDGEVRLGGSLRGAFSNNERVKNFFRVSFKNGSQSQTHSLQANDTFNKQQWLNCIRQAKETVLSAAGQAGLLDSEGLVQGPGTENREPQGETKLEQMDQSDSESDCSMDTSEVSLECERMEQTDASCANSRPEESV", "soluble on expression in E. coli": "soluble"},
      {"sequence": "MVGHSESSTDAVIEPTSEELLAEQVRVFNKMKGSTNFNRVAEDVYPVEVTKSKLVCEMVVQHQHLNSKGTLHGGQTATLTDVITARAVGVTVKDKGMASVELAVSYLLPVKVGDVLEITAHVLKVGRTMAFTDCEFRRKSDGKMSAKGKHTLAFLPNQPGISVENGTQFLEHHHHHHS", "soluble on expression in E. coli": "soluble"},
      {"sequence": "MSGNQMAMGSEQQQTVGSRTVSVEEVPAVLQLRATQDPPRSQEAMPTRHNVRWEENVIDNENMNKKKTKICCIFHPQNEDEEECNHHSDDDGSSSSGSSSSESENEKDLDFNERRQRRLERRHRKLEKKRSYSPNAYEIQPDYSEYRRKQQEKKDMGHHHHHHSH", "soluble on expression in E. coli": "soluble"},
      {"sequence": "MTIHIDFLDETNEVTAEQIETIERLLAEAAALENVPDGAEVSVTFVDNERIRAMNRDYRGKDAPTDVLSFALEEEGEEEVHIVGADMPPVLGDIVISIPKAKEQAAAYGHSFMRELGFLAVHGFLHLLGYDHGTEEEERVMFAKQEDILARFGLTR", "soluble on expression in E. coli": "not soluble"},
      {"sequence": "MNSITVDFLNDQVFQGPMDGTEDKKDGNPKKSTCEKHWAVIDQHNVAICVQLCSFVEGEEKKCAEYYSDKVGGVLKFGRYSLKTIDVKTDLKEFTDKKGFTLYTVEITNSKKKDAPKKTVDILYFSGWPDHGAPQEAYPALEMLKFCESYKKNVLVHCSAGVGRTGTLVAIKYGIELCLKKKVI", "soluble on expression in E. coli": "not soluble"},
      {"sequence": "MAHHHHHHSLNTNLKPKLQRFASATAFACPICQENLTLLETNFKCCNRHSFDLAKFGYVNLAPQIKQSANYDKENFQNRQQILEAGFYQAILDAVSDLLASSKTTTTILDIGCGEGFYSRKLQESHSEKTFYAFDISKDSVQIAAKSEPNWAVNWFVGDLARLPIKDASMDILLDIFSPANYGEFRRVLSKDGILIKVIPTENHLKEIRQRVQDQLTNKEYSNQDIKEHFQEHFTILSSQTASLTKTITAEQLQALLSMTPLLFHVDQSKIDWSQLTEITIEAEILVGKAFEG", "soluble on expression in E. coli": "soluble"},
      {"sequence": "MARFSGKSVIITGSSNGIGRSAAVIFAKEGAQVTITGRNEDRLEETKQQILKAGVPAEKINAVVADVTEASGQDDIINTTLAKFGKIDILVNNAGANLADGTANTDQPVELYQKTFKLNFQAVIEMTQKTKEHLIKTKGEIVNVSSIVAGPQAHSGYPYYACAKAALDQYTRCTAIDLIQHGVRVNSVSPGAVATGFMGAMGLPETASDKLYSFIGSRKECIPVGHCGKPEEIANIIVFLADRNLSSYIIGQSIVADGGSTLVMGMQTHDLMSVLSQ", "soluble on expression in E. coli": "soluble"},
      {"sequence": "MGSDKIHHHHHHAGKQNEVELVAEKQLAFPLDEQTYYLSKSMFQFEENGKEYLHFENTQKSLYDIVIFDIENQQIAKRIPLHKTGPNGLPAVFGSRPSPDSQYILVAQNNISRLSSINSQGEIIRNYNFQTPEGRFTPLSFGSYYNAPAFIKDSCIFLRQEILKPDMKKEDWPRTHMFASQDLRTGEVKWIPIFYPPIFKEEYDNIAGGYGFSYDYNYKESRLVCGFFGYDSLMVTDDLKHIRWYNAKSRYLKSMKPKLGNSMEGINAIIKLNENPRYWHIMYDKYRNVYYRFAEMPYKLAPNESPYETPKGKEFSVIVLNADFEIIGETKFPGKKYFYKMSFVGREGLYISENNLENPQFDENKLVFTCFKIKNASPNK", "soluble on expression in E. coli": "not soluble"},
      {"sequence": "MDIDYTVGEVELSYKPKFKNIYKVVSSEDAYKYLLPTYKEGTICYKEYFKVLFLNQASQVLGYTLISEGGITDTTVDVRVILQAALLTNSVAIILAHNHPSGSMKPSRQDMEITKQVKEAARLMRITVTDHLILTDAGYYSFADEGEL", "soluble on expression in E. coli": "not soluble"},
      {"sequence": "MAKGDPKKPKGKMSAYAFFVQTCREEHKKKNPEVPVNFAEFSKKCSERWKTMSGKEKSKFDEMAKADKVRYDREMKDYGPAKGGKKKKDPNAPKRPPSGFFLFCSEFRPKIKSTNPGISIGDVAKKLGEMWNNLNDSEKQPYITKAAKLKEKYEKDVADYKSKGKFDGAKGPAKVARKKVEEEDEEEEEEEEEEEEEEDE", "soluble on expression in E. coli": "soluble"},
      {"sequence": "MGSDKIHHHHHHKEKKADTYVTKVTDLTGEEEQVLKLEYDRDGKIIKYGDTPVRYEGDQITIGQMNCLNTGNKLCNVTFQIGKGKARESRARCMLKVGEEVYEADKQTVYDYKGDTIFINSDYRATSDYRFLKKVQGKYVFDQLGRLKEVMTVFTEANDSVSSCHTYYNYDNNINYQANLNLQAYVIDYDGVDSFFYFLLNLGQLRNRTALPNDIGYCMNHGLSTYNVHANYRLDDENPVRIEVLYNYTKLLSRIDLSYNPLN", "soluble on expression in E. coli": "not soluble"},
      {"sequence": "MSLRTKSWTDDLKVCNQTGVGEAINQIYKDDGRRCEGYESRDKKCLCISDNNTSLYAILSGHNGVTVAENALQEMAAELLLGQLNVCNTDEAVKELIRQSFMSVEKGYFDSINPHVATKTAIQLHLSADGMNQYEISQQFENVLQKLDSLNNALSVGSSAVLALIHRSHLYLGNIGNCRALLCKTDEHDTLTVTQLSVDHNLLNAEEAARLFRLGLMAQNFEGVPLYSTRCIGNYLGKAGYKDCNFLSSATAEPVIFEPEIVGGIQITPACRFLVLMSSGLCRALHEIFPGDASTGNRELVRMISEEFQNQSTLGGVAQSVVHRIVQAHHDTYMQLVEEHRSVTFNSRDDVTLLIRNFNYAEGHHHHHH", "soluble on expression in E. coli": "soluble"},
      {"sequence": "MPDLTKARCPCRGCNKVANNAEEVEELFGLRNMGDGTIRVQSYCRECRGLHCEASNPKCNHHA", "soluble on expression in E. coli": "not soluble"},
      {"sequence": "MAHHHHHHMGTLEAQTQGPGSMKLLFVCLGNICRSPAAEAVMKKVIQNHHLTEKYICDSAGTCSYHEGQQADSRMRKVGKSRGYQVDSISRPVVSSDFKNFDYIFAMDNDNYYELLDRCPEQYKQKIFKMVDFCTTIKTTEVPDPYYGGEKGFHRVIDILEDACENLIIKLEEGKLIN", "soluble on expression in E. coli": "soluble"},
      {"sequence": "MGSDKIHHHHHHALSPETGSTSVAVMGRQLYEEMRLDQWVCFDAFMQGLRGSEKIDRKNKDILTLIDFSKPSTAERMVVLDIRQKRILYTSLVSHGKNSGGNYATSFSNENGSHKSSLGFYLTENTYQGRNGYSLILNGLEKGINDLAKQRAIVIHGASYSDPSVAASSGRLGRSFGCPALPVSVSKPIINTIKNGTLLFIYANDKNYLTQSSILSTQQENDIFHEKSYRKVL", "soluble on expression in E. coli": "not soluble"},
      {"sequence": "MGSDKIHHHHHHMRNRREVSKLLSERVLLLDGAYGTEFMKYGYDDLPEELNIKAPDVVLKVHRSYIESGSDVILTNTFGATRMKLRKHGLEDKLDPIVRNAVRIARRAAGEKLVFGDIGPTGELPYPLGSTLFEEFYENFRETVEIMVEEGVDGIIFETFSDILELKAAVLAAREVSRDVFLIAHMTFDEKGRSLTGTDPANFAITFDELDIDALGINCSLGPEEILPIFQELSQYTDKFLVVEPNAGKPIVENGKTVYPLKPHDFAVHIDSYYELGVNIFGGCCGTTPEHVKLFRKVLGNRKPLQRKKKRIFAVSSPSKLVTFDHFVVIGERINPAGRKKLWAEMQKGNEEIVIKEAKTQVEKGAEVLDVNFGIESQIDVRYVEKIVQTLPYVSNVPLSLDIQNVDLTERALRAYPGRSLFNSAKVDEEELEMKINLLKKYGGTLIVLLMGKDVPKSFEERKEYFEKALKILERHDFSDRVIFDPGVLPLGAEGKPVEVLKTIEFISSKGFNTTVGLSNLSFGLPDRSYYNTAFLVLGISKGLSSAIMNPLDETLMKTLNATLVILEKKELPRAEVKEEKLVEIILSGNRSELEKLVEDFLKEKDPLSVIEEHLRPAMERIGELYDKGKIFLPQLILAAQTVKPVFDKLTSMLPSDSQGETFVIATVKGDVHDIGKNIVASVIRSSGYRVVDLGKDVDTSEIVEAVEKERPVALGLSAMMTTTVGRIKEVVEKLKEKNLKIPVIVGGASLNEKLAKELGADYYAKNASEAVKILKSLGR", "soluble on expression in E. coli": "not soluble"},
      {"sequence": "MFLEKDMQKNTLWFNGLSMDDVDKVGGKNASLGEMVSNLANVGVSVPNGFATTSYAFNQFLDHEGLDERIHQLLDELDVDDVEALRKTGATIRQWVLQAPFPADLEQEIRNNYEELIEGNTELSVAVRSSATAEDLPDASFAGQQETFLNVKGIDAVLEATKHVYASLFNDRAISYRVHQGFDHRGISLSAGIQRMVRSDKASSGVMFTLDTESGFDQVVFITSSWGLGEMVVQGAVNPDEFYVHKPMLEAGEHPIVKKTFGSKLIKMIYSNNQEIGKQVDIIDTSEEERNTFSLNEEEIKELAKQAMIIEKHYQRPMDIEWAKDGIDGKLYIVQARPETVCSQTEQNVIERYELNNKADVLVEG", "soluble on expression in E. coli": "not soluble"},
      {"sequence": "MQKHFDCVLKHLLSRCCARRRESSFRPAPAGKVFLD", "soluble on expression in E. coli": "not soluble"},
      {"sequence": "LADSIVPRQQWAAIEPRRQIKMNGRADEIFLWQTGPDTCSLMGLTADKCQGCLQDSSCTEQIVKALQDADFKEGNDDIKYNFLIDQDGVIYEGRGWGVVGQHTKGRDSHSIGVAVIGDFGKKEPSQALQDALSKLIICGQAAEELSSGARLRTTPAMSGQAFYDMLDRCDGLCLDD", "soluble on expression in E. coli": "soluble"},
      {"sequence": "MRGSHHHHHHGSDPAPDAVAQQWAIFRAKYLRPSGRVVDTGNGGESHSEGQGYGMLFAASAGDLASFQSMWMWARTNLQHTNDKLFSWRFLKGHQPPVPDKNNATDGDLLIALALGRAGKRFQRPDYIQDAMAIYGDVLNLMTMKAGPYVVLMPGAVGFTKKDSVILNLSYYVMPSLLQAFDLTADPRWRQVMEDGIRLVSAGRFGQWRLPPDWLAVNRATGALSIASGWPPRFSYDAIRVPLYFYWAHMLAPNVLADFTRFWNNFGANALPGWVDLTTGARSPYNAPPGYLAVAECTGLDSAGELPTLDHAPDYYSAALTLLVYIARAEETIK", "soluble on expression in E. coli": "soluble"}
    ]}
  ]
}
